Reference: patent publication US20030124508A1, “Method for testing the hormonal effect of substances” (priority 2001, published 2003)

Molecular target: T1, androgen receptor (Homo sapiens, UniProt P10275)
T1 construct: expressed in transfected cells; host or cells: SH-SY5Y
T1 sequence (P10275 1-920): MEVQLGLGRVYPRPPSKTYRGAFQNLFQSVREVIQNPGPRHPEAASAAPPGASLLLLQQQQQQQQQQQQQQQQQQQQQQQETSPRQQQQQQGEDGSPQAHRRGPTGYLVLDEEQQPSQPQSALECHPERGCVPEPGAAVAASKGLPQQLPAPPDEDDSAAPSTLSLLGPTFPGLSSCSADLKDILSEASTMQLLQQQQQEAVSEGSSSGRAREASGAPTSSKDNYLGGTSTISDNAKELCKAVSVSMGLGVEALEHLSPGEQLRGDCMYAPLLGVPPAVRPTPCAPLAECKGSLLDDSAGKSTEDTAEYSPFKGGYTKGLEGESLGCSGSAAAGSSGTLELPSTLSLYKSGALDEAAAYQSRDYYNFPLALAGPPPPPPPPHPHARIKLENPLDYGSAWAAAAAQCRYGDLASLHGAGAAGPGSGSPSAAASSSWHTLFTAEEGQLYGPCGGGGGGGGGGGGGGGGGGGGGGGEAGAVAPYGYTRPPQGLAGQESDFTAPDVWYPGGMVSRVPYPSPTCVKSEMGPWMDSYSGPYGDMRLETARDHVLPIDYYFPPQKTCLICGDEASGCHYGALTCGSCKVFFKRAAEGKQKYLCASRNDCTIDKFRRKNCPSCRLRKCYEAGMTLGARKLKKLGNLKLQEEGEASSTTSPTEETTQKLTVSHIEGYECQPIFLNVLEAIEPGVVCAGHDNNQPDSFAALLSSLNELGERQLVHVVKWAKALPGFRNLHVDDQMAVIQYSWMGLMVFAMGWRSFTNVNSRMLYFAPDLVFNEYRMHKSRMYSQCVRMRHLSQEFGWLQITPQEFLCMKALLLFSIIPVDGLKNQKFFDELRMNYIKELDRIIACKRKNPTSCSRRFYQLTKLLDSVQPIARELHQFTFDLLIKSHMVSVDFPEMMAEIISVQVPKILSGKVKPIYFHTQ
Assay: Co-activation of the androgen receptor signal (MMTV-luciferase reporter) in transfected SH-SY5Y cells
Format: cell-based
Details: SH-SY5Y cells transfected with 1 μg co-activator in CMX, MMTV-luciferase and pSG5AR; DHT for 24 hours; especially at low androgen concentrations of 10^−12-10^−10 M; vs CMX control plasmid
Method: The ARAP11-cDNA which codes for the ARAP11 fragment of amino acids 813-1,390, obtained by PCR, was cloned in the standard manner into the vector CMX and transfected with pSG5-AR and MMTV-luciferase in SH-SY5Y cells, also in the standard manner.
After 24 hours, the cells were treated with […] (DHT) as the androgen in the indicated concentrations. The transfected cells were harvested after another 24 hours, and the activity of the reporter gene luciferase was measured. In addition, the total quantity of cell protein was determined for the sake of normalization. One experiment and four measurements were conducted per transfection batch and substance concentration. The error range is given as the SD. The values of the corresponding controls without DHT were subtracted from all signals. The activity is expressed in relative units.

B1: ARAP11-cDNA: cDNA in vector CMX coding for amino acids 813-1,390 of ARAP11, co-activator for the human androgen receptor (protein)
chain: VIHALEKFTVYTLDIPVLFGVSTTSPEETCAQVIREAKRTAPSIVYVPHIHVWWEIVGPTLKATFTTLLQNIPSFAPVLLLATSDKPHSALPEEVQELFIRDYGEIFNVQLPDKEERTKFFEDLILKQAAKPPISKKKAVLQALEVLPVAPPPEPRSLTAEEVKRLEEQEEDTFRELRIFLRNVTHRLAIDKRFRVFTKPVDPDEVPDYVTVIKQPMDLSSVISKIDLHKYLTVKDYLRDIDLICSNALEYNPDRDPGDRLIRHRACALRDTAYAIIKEELDEDFEQLCEEIQESRKKRGCSSSKYAPSYYHVMPKQNSTLVGDKRSDPEQNEKLKTPSTPVACSTPAQLKRKIRKKSNWYLGTIKKRRKISQAKDDSQNAIDHKIESDTEETQDTSVDHNETGNTGESSVEENEKQQNASESKLELRNNSNTCNIENELEDSRKTTACTELRDKIACNGDASSSQIIHISDENEGKEMCVLRMTRARRSQVEQQQLITVEKALAILSQPTPSLVVDHERLKNLLKTVVKKSQNYNIFQLENLYAVISQCIYRHRKDHDKTSLIQKMEQEVENFSCSR
modifications: fetalbrain; ARAP11 fragment from amino acid residues 813- 1390
co-activation of the AR signal activity (luciferase reporter activity): strong co-activation of the AR signal activity
